Experimental data taken from US20140170125A1, “USE OF CARDIOTROPHIN-1 FOR THE TREATMENT OF KIDNEY DISEASES” (DIGNA Biotech, S.L., priority 2011, published 2014).
“Also recorded” adds a separate entry of the source.

Legend:
[1] = system: acute kidney injury produced by gentamicin; assay: Acute kidney injury produced by gentamicin; conditions: for urinary flow: administered separately, vs control group (C); for reactive bands to the anti KIM-1 antibody in the urine / renal levels of KIM-1 (Western blot): vs controls; for survival: until the end of the experiment
[2] = system: experimental model of iodinated contrast nephropathy; assay: Contrast-induced nephropathy: Gastrografin in rats sensitized with subtoxic gentamicin; conditions: for KIM-1 in the urine (Western blot): in comparison with the controls; for general condition (appearance, mobility): throughout the experiment; for survival: until the end of the experiment (four days after contrast); for PAI-1 in the urine (Western blot): vs control group
Description: The rats were placed in individual metabolic cages where they had free access to food and drink. After two days of acclimatization, the 24-hour urine was collected in graduated cylinders. The urine collected was centrifuged during 8 minutes at 2,500 rpm, to clean it from residues not thereof, the clean urine was collected and it was stored at −80° C. for its later analysis.
The blood samples were obtained in capillaries with heparin by a small cut at the end of the tail. Five capillaries were extracted per rat (200 μL), and the capillaries were centrifuged in a microcentrifuge at 11,000 rpm during three minutes. Once centrifuged, the capillaries were broken with the aid of a file, by the cells-plasma limit. The plasma was extracted and stored in eppendorf tubes at −80° C. for its later analysis.
To measure kidney function, the plasma concentrations of creatinine and creatinine clearance, which is a measurement of the glomerular filtration rate, were determined. The creatinine clearance (CrCl) was calculated from the formula CrCl=UF×CrU/CrP, where UF is the urinary flow (ml/min), CrU the creatinine concentration in urine (mg/ml) and CrP the creatinine concentration in plasma (mg/ml). The creatinine concentration in urine and in plasma were measured by a semiautomatic analyser (Reflotron, Roche).
The concentration of urea in plasma was measured by specific reactive strips of a commercial kit, using a semiautomatic analyser (Reflotron, Roche).
The concentration of proteins in urine (proteinuria) was measured by Bradford's colorimetric method (Anal Biochem. 1976; 72:248-54). The urinary excretion of proteins (UEprot) in 24 hours was calculated by the formula: UEprot=Cprot×FU24 h, where Cprot is the concentration of proteins in urine (mg/mL) and FU24 h the urinary flow of 24 hours (mL/day).
For its determination a commercial kit from Roche was used, following the manufacturer's specifications, and the results were analysed with the KC-Junior software.
In the Western Blot technique, 100 μg of protein of the total of the renal tissue homogenate or a volume of urine of each animal which corresponds to the excretion fraction were loaded in a polyacrylamide gel. After separation by electrophoresis, these proteins were transferred to a PVDF membrane (Inmobilon-P #IPVH00010, Madrid, Spain), and they were hybridized with antibodies against KIM-1 (R&D Systems) and NGAL (MBL).
An experimental model of iodinated contrast nephropathy was used, consisting of the intravenous administration of the iodinated contrast Gastrografin (Bayer C. N. 909622 EXO) to rats predisposed to suffering acute kidney failure.
The experiment was performed on 32 male Wistar rats of around 220 grams in weight. The environmental conditions of the animals were kept constant: temperature of around 20° C., humidity of approximately 60% and daily light period (photoperiod) of 12 hours.
Six experimental groups were considered in the design study:
Control group (C): rats administered saline solution (n=5).
Cardiotrophin group (CT-1): rats administered cardiotrophin i.v. (100 μg/Kg/day) the day before the administration of the contrast and in the four subsequent days (n=5).
Gastrografin group (Gg): rats administered a single dose of iodinated agent i.v. (10 mL/Kg; […]) (n=5).
The animals were housed in metabolic cages in order to collect the urine free of faeces. Likewise, a blood sample was obtained every day (0.150 ml) from the tail in heparized capillaries.
At the end of the experiments (four days after administration of the iodinated contrast) the rats were anaesthetized and, later, they were perfused with heparinized saline solution. The kidneys were obtained from these animals and part of the samples was introduced in formol to perform histological studies whilst another part was ultrafrozen for the tissue studies.
The studies performed were the following:
Plasma creatinine, Plasma urea, proteinuria, microalbuminuria
Creatinine clearance in metabolic cages

[3] = system: cisplatin-induced kidney injury; assay: Acute kidney injury produced by cisplatin; assay type: in vivo, Wistar rats
Description: The urinary flow (mL/day) was evaluated measuring the graduated receptacles containing the 24-hour urine in the metabolic cages as indicated in the obtainment of urine.
The experiment was performed in 24 male Wistar rats of around 220 grams in weight.
The animals were divided in 4 experimental groups, comprising 6 rats per group. […] The experimental design was developed as described below:
Group I (Control, C, n=6 animals) animals treated with vehicle via i.v. during 7 days.
Group II (Cardiotrophin-1, CT-1, n=6 animals) animals administered a daily dose of cardiotrophin-1 of 100 μg/kg body weight via i.v. during 7 days.

[4] = system: rats subjected to 60 minutes of left renal ischemia; assay: Acute kidney injury produced by renal ischemia/reperfusion (60 minutes of left renal ischemia); assay type: in vivo
[5] = agents without CT-1 protection or alone, vs control
[6] = 4 hours after reperfusion, elevation induced by IR
[7] = group Gg+G+CT-1, CT-1 100 μg/Kg/day i.v.

For gentamicin [reference compound], the urinary flow [1] was “Neither G nor CT-1, administered separately, modified the urinary flow”, the “general condition (appearance, mobility)” value ([1]; agent alone) was “more deteriorated appearance, reduced mobility and slight colouring of the hair” and the proteinuria ([1]; agent alone) was “high proteinuria”. The “reactive bands to the anti KIM-1 antibody in the urine” value ([1]; agent alone) was “clear increase”, the “renal levels of KIM-1 (Western blot)” value ([1]; agent alone) was “clear increase” and the “liver weight (with respect to the body weight)” value ([1]; at the time of sacrifice) was “tendency for relative weight reduction”. The “renal and urinary NGAL (Western blot)” value ([1]; end of treatments) was “induce an increase”, the “renal cortex histology (hematoxylin-eosin)” value ([1]; gentamicin alone, end of treatments) was “massive tubular necrosis” and the survival [1] was “one animal from each group died”. The body weight ([1]; vs control and CT-1 groups) was “slight decrease”, the proteinuria [2, 5] was “did not alter” and the “KIM-1 in the urine (Western blot)” value [2] was “produced no effect”. For the same molecule, the “general condition (appearance, mobility)” value [2] was “healthy appearance and normal mobility”, the survival [2] was “all animals survived until the end of the experiment” and the “PAI-1 in the urine (Western blot)” value [2] was “not different from the control group animals”.

B1: CT-1: cytokine belonging to the interleukin 6 family; recombinant human CT-1 or rat cardiotrophin-1 administered i.v. (protein, UniProt Q16619 1-201, looked up)
Cardiotrophin-1: MSRREGSLEDPQTDSSVSLLPHLEAKIRQTHSLAHLLTKYAEQLLQEYVQLQGDPFGLPSFSPPRLPVAGLSAPAPSHAGLPVHERLRLDAAALAALPPLLDAVCRRQAELNPRAPRLLRRLEDAARQARALGAAVEALLAALGAANRGPRAEPPAATASAASATGVFPAKVLGLRVCGLYREWLSRTEGDLGQLLPGGSA
With B1 the body weight ([3]; agent alone, vs control group) was “without apparent differences; also recorded: does not show changes”, the plasma creatinine ([3]; agent alone, vs control group) was “does not reflect changes” and the “cisplatin-induced reduction in body weight under joint treatment” value ([3]; cardiotrophin-1 100 μg/kg i.v. 7 days + cisplatin 6 mg/kg i.p., vs cisplatin) was “significantly less”. The “cisplatin-induced increase in plasma creatinine under joint treatment” value ([3]; cardiotrophin-1 100 μg/kg i.v. 7 days + cisplatin 6 mg/kg, vs cisplatin) was “significantly less”, the “physical condition during coadministration with cisplatin” value ([3]; cardiotrophin-1 + cisplatin) was “spectacular improvement” and the “cisplatin-induced increase in final kidney weight under joint treatment” value ([3]; cardiotrophin-1 + cisplatin, vs cisplatin) was “substantially less”. For the same molecule, the “effect on cisplatin-induced kidney injury (conclusion)” value ([3]; rat cardiotrophin-1 100 μg/kg/day i.v. 7 days, cisplatin 6 mg/kg) was “protective effect”, the survival ([3]; throughout the experimental period, vs control group) was “does not modify the survival” and the “urinary flow under joint administration with cisplatin” value ([3]; without significant differences vs control and cardiotrophin-1 groups) was “constant evolution”. The “decrease of plasma levels of IL-6 after ischemia and reperfusion” value ([4]; 4 hours after reperfusion) was “not observed”, the “decrease of plasma levels of IL-10 after ischemia and reperfusion” value ([4]; 4 hours after reperfusion) was “not observed” and the “plasma levels of IFN-γ” value [4, 6] was “blocked the elevation”. The “plasma levels of IL-1β” value [4, 6] was “blocked the elevation”, the “plasma levels of TNF-α” value [4, 6] was “blocked the elevation” and the “obstructed tubules and vacuolated cells (histology)” value ([4]; 24 hours after reperfusion, vs control kidneys) was “less abundant”. The creatinine clearance ([4]; 48 hours after I/R, vs IR C) was “significantly higher”, the plasma creatinine ([4]; 48 hours after I/R, vs IR C, no significant differences vs simulated group) was “markedly lower” and the “denuded tubules and inflammatory infiltration (histology)” value ([4]; 48 hours after reperfusion, vs control kidneys) was “less abundant”. For the same molecule, the mortality ([4]; 14 days after the I/R, CT-1 400 μg/kg, untreated ischemic group 40%) was 20%, the “acute kidney injury induced by ischemia/reperfusion (conclusion)” value ([4]; also decrease in kidney function, oxidative stress and inflammation) was “prevents acute kidney injury” and the “renal levels of superoxide anion (SOA)” value ([4]; four hours after reperfusion, vs ischemic control group, significantly greater than simulated group) was “significantly less”. For the same molecule, the “gentamicin-induced symptoms (appearance, mobility, hair) in group G+CT-1” value ([1]; CT-1 100 μg/kg/day i.v. 7 days + gentamicin 150 mg/kg/day i.p. 6 days) was “significantly reduced”, the “effect on the decrease in creatinine clearance produced by G” value ([1]; CT-1 together with G) was “partially reversed” and the “effect on the increase in plasma creatinine produced by G” value ([1]; CT-1 together with G) was “partially reversed”. The “effect on the increase in plasma urea concentration produced by G” value ([1]; CT-1 together with G) was “partially reversed”, the “effect on the proteinuria produced by G” value ([1]; CT-1 together with G) was “partially reversed” and the urinary flow [1] was “Neither G nor CT-1, administered separately, modified the urinary flow”. The creatinine clearance ([1]; agent alone) was “did not alter”, the “general condition (appearance, mobility)” value ([1]; agent alone) was “healthy appearance and normal mobility” and the plasma creatinine ([1]; agent alone) was “did not alter”. The proteinuria ([1]; agent alone) was “did not alter”, the urea plasma concentration ([1]; agent alone) was “did not alter” and the “reactive bands to the anti KIM-1 antibody in the urine” value ([1]; agent alone) was “does not produce any effect”. For the same molecule, the “renal levels of KIM-1 (Western blot)” value ([1]; agent alone) was “does not produce any effect”, the “liver weight (with respect to the body weight)” value ([1]; at the time of sacrifice) was “certain hepatomegaly” and the “spleen weight (with respect to the body weight)” value ([1]; at the time of sacrifice) was “marked splenomegaly”. For the same molecule, the “systolic blood pressure (SBP)” value ([1]; basal vs end of treatments (d 6)) was “not observed”, the “extension of gentamicin tubular damage under cotreatment (histology)” value ([1]; cotreatment with CT-1) was “moderately and partially prevents the extension of tubular damage” and the “renal and urinary NGAL (Western blot)” value ([1]; end of treatments) was “induce an increase”. The “effect on the increase in NAG excretion produced by G” value ([1]; especially the submaximal of the first days) was “reduces this increase”, the “effect on the increase in KIM-1 expression in the kidney that G produces” value ([1]; group G+CT-1) was “does not appreciably decrease” and the “effect on the weight loss produced by G” value ([1]; group G+CT-1) was “partially mitigated”. For the same molecule, the “upper band (approx. 90 kDa) of KIM-1 in the urine under G with CT-1” value ([1]; group G+CT-1) was “partially decreases”, the “effect on acute kidney injury produced by gentamicin (conclusion)” value ([1]; recombinant human CT-1 i.v. 100 μg/kg/day, 7 days) was “protective effect” and the survival [1] was “all animals survived until the end of the experiment”. For the same molecule, the creatinine clearance [2, 5] was “did not alter”, the “plasma concentration of creatinine” value [2, 5] was “did not alter” and the proteinuria [2, 5] was “did not alter”. The urea plasma concentration [2, 5] was “did not alter”, the “effect on the RPF decrease produced by Gg+G” value ([2]; co-treatment with CT-1) was “reversal” and the “effect on the RVR increase produced by gentamicin and gastrografin” value ([2]; coadministration of CT-1) was “counteracted the increase”. The “PAI-1 in the urine under Gg+G with CT-1” value ([2]; group Gg+G+CT-1) was “does not appear”, the “effect on the GFR decrease produced by Gg+G” value ([2]; group Gg+G+CT-1) was “reversed” and the “effect on the NAG increase produced by Gg+G” value ([2]; group Gg+G+CT-1) was “reduced this increase”. For the same molecule, the “effect on the decrease in creatinine clearance produced by Gg+G” value [2, 7] was “partially reversed”, the “effect on the increase in plasma concentration of creatinine produced by Gg+G” value [2, 7] was “partially reversed” and the “effect on the increase in plasma urea produced by Gg+G” value [2, 7] was “partially reversed”. The “effect on the proteinuria produced by Gg+G” value [2, 7] was “partially reversed”, the “KIM-1 in the urine (Western blot)” value [2] was “produced no effect” and the “deterioration of renal excretory function and intensity of tubular damage (conclusion)” value ([2]; recombinant human CT-1 i.v. 100 μg/kg/day, contrast nephropathy in animals sensitized with gentamicin) was “reduces”. For the same molecule, the “general condition (appearance, mobility)” value [2] was “healthy appearance and normal mobility”, the survival [2] was “all animals survived until the end of the experiment” and the “effect on the increase in KIM-1 expression produced by Gg+G” value ([2]; urine, Western blot, group Gg+G+CT-1) was “considerably decreases the increase”. The “PAI-1 in the urine (Western blot)” value [2] was “not different from the control group animals”.
